Source: US11306156

Columns and labels:
[1] = target: D3H44 light chain Q124R_T178R, N-terminal HA or FLAG tag; assay: LCCA, SPR of light chain tags, L1:L2 DNA 1:3 norm. to 1:1; other light chain m22
[2] = target: D3H44 light chain Q124E_V133Y_T180E, N-terminal HA or FLAG tag; assay: LCCA, SPR of light chain tags, L1:L2 DNA 1:3 norm. to 1:1; other light chain m14
[3] = target: D3H44 light chain Q124R_Q160K_T178R, N-terminal HA or FLAG tag; assay: LCCA, SPR of light chain tags, L1:L2 DNA 1:9 norm. to 1:1; other light chain m21
[4] = target: D3H44 light chain Q124R_Q160K_T178R, N-terminal HA or FLAG tag; assay: LCCA, SPR of light chain tags, L1:L2 DNA 1:3 norm. to 1:1; other light chain m21
[5] = target: D3H44 light chain Q124R_T178R, N-terminal HA or FLAG tag; assay: LCCA, SPR of light chain tags, L1:L2 DNA 1:3 norm. to 1:1; other light chain m19
[6] = target: D3H44 light chain Q124R_Q160K_T178R, N-terminal HA or FLAG tag; assay: as above
[7] = target: D3H44 light chain Q124E_V133E, N-terminal HA or FLAG tag; assay: LCCA, SPR of light chain tags, L1:L2 DNA 1:9 norm. to 1:1; other light chain m17
[8] = target: D3H44 light chain Q124E_T178E_T180E, N-terminal HA or FLAG tag; assay: as above
[9] = target: D3H44 light chain Q124R_Q160K_T178R, N-terminal HA or FLAG tag; assay: LCCA, SPR of light chain tags, L1:L2 DNA 1:3 norm. to 1:1; other light chain m18
[10] = target: D3H44 light chain Q124R_Q160K_T178R, N-terminal HA or FLAG tag; assay: LCCA, SPR of light chain tags, L1:L2 DNA 1:9 norm. to 1:1; other light chain m18
[11] = target: D3H44 light chain S131E, N-terminal HA or FLAG tag; assay: LCCA, SPR of light chain tags, L1:L2 DNA 1:3 norm. to 1:1; other light chain m17
[12] = target: D3H44 light chain Q124E_T178E, N-terminal HA or FLAG tag; assay: as above
[13] = target: D3H44 light chain Q124E_V133E, N-terminal HA or FLAG tag; assay: as above
[14] = target: D3H44 light chain Q124E_Q160E_T178E, N-terminal HA or FLAG tag; assay: as above
[15] = target: D3H44 light chain Q124E_T178E_T180E, N-terminal HA or FLAG tag; assay: as above
[16] = target: D3H44 light chain S131E, N-terminal HA or FLAG tag; assay: LCCA, SPR of light chain tags, L1:L2 DNA 1:3 norm. to 1:1; other light chain m14
[17] = target: D3H44 light chain Q124R_Q160K_T178R, N-terminal HA or FLAG tag; assay: LCCA, SPR of light chain tags, L1:L2 DNA 1:3 norm. to 1:1; other light chain m26
[18] = target: D3H44 light chain Q124R_Q160K_T178R, N-terminal HA or FLAG tag; assay: LCCA, SPR of light chain tags, L1:L2 DNA 1:3 norm. to 1:1; other light chain m23
[19] = target: D3H44 light chain Q124R_T178R, N-terminal HA or FLAG tag; assay: LCCA, SPR of light chain tags, L1:L2 DNA 1:9 norm. to 1:1; other light chain m15
[20] = target: D3H44 light chain Q124R_T178R, N-terminal HA or FLAG tag; assay: LCCA, SPR of light chain tags, L1:L2 DNA 1:3 norm. to 1:1; other light chain m20
[21] = target: D3H44 light chain Q124R_T178R, N-terminal HA or FLAG tag; assay: LCCA, SPR of light chain tags, L1:L2 DNA 1:3 norm. to 1:1; other light chain m25
[22] = target: D3H44 light chain Q124R_T178R, N-terminal HA or FLAG tag; assay: LCCA, SPR of light chain tags, L1:L2 DNA 1:3 norm. to 1:1; other light chain m16
[23] = target: D3H44 light chain Q124R_T178R, N-terminal HA or FLAG tag; assay: LCCA, SPR of light chain tags, L1:L2 DNA 1:3 norm. to 1:1; other light chain m15
[24] = target: D3H44 light chain Q124E_V133W_T180E, N-terminal HA or FLAG tag; assay: LCCA, SPR of light chain tags, L1:L2 DNA 1:3 norm. to 1:1; other light chain m14
[25] = target: D3H44 light chain Q124E_S131T_T178F_T180E, N-terminal HA or FLAG tag; assay: as above
[26] = target: D3H44 light chain Q124E_S176L_T180E, N-terminal HA or FLAG tag; assay: as above
[27] = target: D3H44 light chain Q124E_S131T_T178Y_T180E, N-terminal HA or FLAG tag; assay: as above
[28] = target: D3H44 light chain Q124R_T178R, N-terminal HA or FLAG tag; assay: LCCA, SPR of light chain tags, L1:L2 DNA 1:9 norm. to 1:1; other light chain m16
[29] = target: D3H44 light chain Q124E_S176L_T180E, N-terminal HA or FLAG tag; assay: LCCA, SPR of light chain tags, L1:L2 DNA 1:9 norm. to 1:1; other light chain m14
[30] = target: D3H44 light chain Q124E_S131T_T178Y_T180E, N-terminal HA or FLAG tag; assay: as above
[31] = target: D3H44 light chain Q124R_Q160K_T178R, N-terminal HA or FLAG tag; assay: LCCA, SPR of light chain tags, L1:L2 DNA 1:9 norm. to 1:1; other light chain m27
[32] = target: D3H44 light chain Q124E_V133D_S176L, N-terminal HA or FLAG tag; assay: LCCA, SPR of light chain tags, L1:L2 DNA 1:9 norm. to 1:1; other light chain m17
[33] = target: D3H44 light chain Q124R_Q160K_T178R, N-terminal HA or FLAG tag; assay: LCCA, SPR of light chain tags, L1:L2 DNA 1:3 norm. to 1:1; other light chain m27
[34] = target: D3H44 light chain Q124E_V133D_S176L, N-terminal HA or FLAG tag; assay: LCCA, SPR of light chain tags, L1:L2 DNA 1:3 norm. to 1:1; other light chain m17
[35] = target: D3H44 light chain Q124E_V133D, N-terminal HA or FLAG tag; assay: LCCA, SPR of light chain tags, L1:L2 DNA 1:3 norm. to 1:1; other light chain m24
[36] = target: D3H44 light chain Q124R, N-terminal HA or FLAG tag; assay: LCCA, SPR of light chain tags, L1:L2 DNA 1:3 norm. to 1:1; other light chain m28
[37] = target: D3H44 light chain Q124E_V133D, N-terminal HA or FLAG tag; assay: LCCA, SPR of light chain tags, L1:L2 DNA 1:9 norm. to 1:1; other light chain m24
[38] = target: D3H44 light chain Q124R, N-terminal HA or FLAG tag; assay: LCCA, SPR of light chain tags, L1:L2 DNA 1:9 norm. to 1:1; other light chain m28
[39] = target: D3H44 light chain Q124E_V133E, N-terminal HA or FLAG tag; assay: LCCA, SPR of light chain tags, L1:L2 DNA 1:3 norm. to 1:1; other light chain m24
[40] = target: D3H44 light chain Q124R, N-terminal HA or FLAG tag; assay: LCCA, SPR of light chain tags, L1:L2 DNA 1:3 norm. to 1:1; other light chain m18
[41] = target: D3H44 light chain Q124R_Q160K_T178R, N-terminal HA or FLAG tag; assay: LCCA, SPR of light chain tags, L1:L2 DNA 1:3 norm. to 1:1; other light chain m16
[42] = target: D3H44 light chain Q124E_S176L_T180E, N-terminal HA or FLAG tag; assay: LCCA, SPR of light chain tags, L1:L2 DNA 1:3 norm. to 1:1; other light chain m17

## D3H44 Fab heavy chain L143A_Q179K, ABD2-His6 tagged
[1]
  H1L1:H1L2 normalized median ratio: 4%
[2]
  H1L1:H1L2 normalized median ratio: 96%
  H1L1:H1L2 normalized median scalar value ln(r1/f1): 1

## D3H44 Fab heavy chain L143E_K145T, ABD2-His6 tagged
[3]
  H1L1:H1L2 normalized median ratio: 81%
  H1L1:H1L2 normalized median scalar value ln(r1/f1): 1.44
[4]
  H1L1:H1L2 normalized median ratio: 82%
  H1L1:H1L2 normalized median scalar value ln(r1/f1): 1.52
[5]
  H1L1:H1L2 normalized median ratio: 46%
  H1L1:H1L2 normalized median scalar value ln(r1/f1): -0.16
[6]
  H1L1:H1L2 normalized median ratio: 47%
  H1L1:H1L2 normalized median scalar value ln(r1/f1): -0.14
[7]
  H1L1:H1L2 normalized median ratio: 13%
[8]
  H1L1:H1L2 normalized median ratio: 19%
[9]
  H1L1:H1L2 normalized median ratio: 79%
  H1L1:H1L2 normalized median scalar value ln(r1/f1): 1.35
[10]
  H1L1:H1L2 normalized median ratio: 37%
[11]
  H1L1:H1L2 normalized median ratio: 53%
[12]
  H1L1:H1L2 normalized median ratio: 41%
[13]
  H1L1:H1L2 normalized median ratio: 21%
[14]
  H1L1:H1L2 normalized median ratio: 41%
[15]
  H1L1:H1L2 normalized median ratio: 18%
[16]
  H1L1:H1L2 normalized median ratio: 54%
[17]
  H1L1:H1L2 normalized median ratio: 59%
  H1L1:H1L2 normalized median scalar value ln(r1/f1): 0.36
[18]
  H1L1:H1L2 normalized median ratio: 59%
  H1L1:H1L2 normalized median scalar value ln(r1/f1): 0.37

## D3H44 Fab heavy chain L143E_K145T_Q179E_S188L, ABD2-His6 tagged
[19]
  H1L1:H1L2 normalized median ratio: 79%
  H1L1:H1L2 normalized median scalar value ln(r1/f1): 1.33
[20]
  H1L1:H1L2 normalized median ratio: 77%
  H1L1:H1L2 normalized median scalar value ln(r1/f1): 1.19
[21]
  H2L2:H2L1 normalized median ratio: 75%
[22]
  H1L1:H1L2 normalized median ratio: 87%
  H1L1:H1L2 normalized median scalar value ln(r1/f1): 1.9
[23]
  H1L1:H1L2 normalized median ratio: 83%
  H1L1:H1L2 normalized median scalar value ln(r1/f1): 1.62
[1]
  H2L2:H2L1 normalized median ratio: 71%
[24]
  H2L2:H2L1 normalized median ratio: 25%
[25]
  H1L1:H1L2 normalized median ratio: 23%
[26]
  H1L1:H1L2 normalized median ratio: 13%
[27]
  H1L1:H1L2 normalized median ratio: 17%
[2]
  H2L2:H2L1 normalized median ratio: 29%
[28]
  H1L1:H1L2 normalized median ratio: 90%
  H1L1:H1L2 normalized median scalar value ln(r1/f1): 2.25
[29]
  H1L1:H1L2 normalized median ratio: 10%
[30]
  H1L1:H1L2 normalized median ratio: 21%

## D3H44 Fab heavy chain L143K, ABD2-His6 tagged
[31]
  H2L2:H2L1 normalized median ratio: 9%
[32]
  H2L2:H2L1 normalized median ratio: 91%
[33]
  H2L2:H2L1 normalized median ratio: 6%
[34]
  H2L2:H2L1 normalized median ratio: 94%

## D3H44 Fab heavy chain L143K_D146G, ABD2-His6 tagged
[35]
  H2L2:H2L1 normalized median ratio: 91%
[36]
  H2L2:H2L1 normalized median ratio: 9%
[37]
  H2L2:H2L1 normalized median ratio: 88%
[38]
  H2L2:H2L1 normalized median ratio: 12%

## D3H44 Fab heavy chain L143R, ABD2-His6 tagged
[39]
  H2L2:H2L1 normalized median ratio: 96%
[7]
  H2L2:H2L1 normalized median ratio: 93%
[40]
  H2L2:H2L1 normalized median ratio: 4%
[9]
  H2L2:H2L1 normalized median ratio: 4%
[10]
  H2L2:H2L1 normalized median ratio: 7%
[13]
  H2L2:H2L1 normalized median ratio: 96%

## D3H44 Fab heavy chain Q179R, ABD2-His6 tagged
[3]
  H2L2:H2L1 normalized median ratio: 8%
[19]
  H2L2:H2L1 normalized median ratio: 9%
[20]
  H2L2:H2L1 normalized median ratio: 4%
[4]
  H2L2:H2L1 normalized median ratio: 7%
[8]
  H2L2:H2L1 normalized median ratio: 92%
[22]
  H2L2:H2L1 normalized median ratio: 7%
[41]
  H2L2:H2L1 normalized median ratio: 2%
[23]
  H2L2:H2L1 normalized median ratio: 6%
[42]
  H2L2:H2L1 normalized median ratio: 98%
[12]
  H2L2:H2L1 normalized median ratio: 97%
[14]
  H2L2:H2L1 normalized median ratio: 97%
[15]
  H2L2:H2L1 normalized median ratio: 93%
[25]
  H2L2:H2L1 normalized median ratio: 96%
[26]
  H2L2:H2L1 normalized median ratio: 93%
[27]
  H2L2:H2L1 normalized median ratio: 94%
[17]
  H2L2:H2L1 normalized median ratio: 3%
[28]
  H2L2:H2L1 normalized median ratio: 15%
[29]
  H2L2:H2L1 normalized median ratio: 85%
[30]
  H2L2:H2L1 normalized median ratio: 91%
[18]
  H2L2:H2L1 normalized median ratio: 3%

## D3H44 Fab heavy chain S186K, ABD2-His6 tagged
[19]
  H2L2:H2L1 normalized median ratio: 11%
[20]
  H2L2:H2L1 normalized median ratio: 4%
[5]
  H2L2:H2L1 normalized median ratio: 2%
[6]
  H2L2:H2L1 normalized median ratio: 1%
[23]
  H2L2:H2L1 normalized median ratio: 5%
[11]
  H2L2:H2L1 normalized median ratio: 99%
[12]
  H2L2:H2L1 normalized median ratio: 98%
[16]
  H2L2:H2L1 normalized median ratio: 98%
[25]
  H2L2:H2L1 normalized median ratio: 96%
[27]
  H2L2:H2L1 normalized median ratio: 95%
[17]
  H2L2:H2L1 normalized median ratio: 2%
[30]
  H2L2:H2L1 normalized median ratio: 89%
